According to the supplement of paper PMC10567573:

B1: DFFB (parent)
chain: KLNCDPSRIYKPQTRLKRKQPVRK
B2: EPB41L3 (parent)
chain: KKFLTLGSKFRYSGRTQAQTRRAS

Variants of: B1
Experiment: protein stability index of a GFP-peptide fusion (GPS, HEK-293T) (PSI 1-6); higher = more stable
Conditions: c terminus: a fixed tail appended
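Further: lentivirally expressed fusions sorted by FACS into six bins by GFP to DsRed ratio, PSI derived from sequencing read proportions per bin multiplied by bin number.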

Protein stability index, by site and new letter:
T14: A 3.56, Y 3.49, L 3.91, V 3.51, S 3.19, P 3.11, C 3.61, G 3.49, D 3.28, R 3.52, W 3.95, H 3.77, K 3.54, I 3.34, E 3.28, M 2.64, N 3.58, F 2.68, Q 3.31
R15: D 3.09, A 2.82, L 2.69, G 3.58, E 3.68, I 3.52, V 3.49, M 3.21, W 3.02, T 3.76, F 3.25, Y 2.17, H 3.59, C 3.24, S 3.96, N 3.26, P 3.6, K 3.24, Q 2.67
K11: C 3.9, E 4.3, N 2.98, Y 3.94, W 3.3, T 3.2, F 3.09, H 2.94, D 3.21, G 3.17, I 3.16, R 3.53, M 3.02, V 3.95, P 3.15, A 4.01, L 2.99, Q 2.07, S 2.89
K1: T 3.87, L 3.8, S 2.92, D 4.23, F 2.63, W 3.65, N 3.47, I 2.06, E 3.42, R 4.11, Q 3.37, G 3.13, V 3.57, C 3.2, A 4.14, Y 3.24, P 3.54, M 2.65, H 1.93
R8: W 3.29, M 3.23, G 3.83, K 4, P 3.58, L 2.9, D 3.63, A 3.84, Y 2.77, S 3.2, C 3.63, F 3.55, H 3.61, Q 3.57, V 2.94, T 2.81, N 3.38, E 4.21, I 2.93
N3: H 3.75, C 3.73, Y 3.29, R 4.24, M 3.19, E 4.44, T 3.96, W 3.21, Q 3.53, F 3.03, S 4.17, P 3.97, K 4.07, L 3.06, V 3.96, I 2.89, A 4.21, G 4.4, D 4.07
L2: T 4.12, M 4.09, P 4.57, A 4.27, G 4.94, K 2.28, R 4.01, S 4.16, V 4.01, Q 4.16, E 4.52, W 2.73, H 2.95, D 4.89, Y 3.55, I 3.2, F 3.96, N 4.5, C 3.55
K17: T 3.14, F 3.45, R 3.18, C 3.38, M 3.45, G 4.14, Q 2.9, N 3.21, L 2.14, P 3, H 2.55, W 3.19, E 3.42, V 3.25, A 2.98, S 3.35, I 3.21, D 2.17
L16: S 3.6, F 2.8, C 2.95, Q 3.9, P 3.83, V 3.88, M 3.23, N 3.85, H 3.9, T 4.05, I 3.67, E 4.44, G 4.16, A 3.34, K 3.07, R 3.48, D 2.92, W 3, Y 3.77
Y10: V 2.94, S 4.16, G 2.28, H 3.86, F 2.58, A 2.92, N 3.57, Q 2.75, T 3.35, K 3.21, R 3.56, M 3.38, L 3.84, P 3.72, D 3.55, W 3.47, C 3.62, E 3.56, I 3.6
P12: K 3.46, A 3.47, C 3.21, S 3.89, M 3.31, D 3.09, F 3.38, I 2.85, N 4.49, E 4.24, G 3.3, Y 2.79, H 3.13, W 3.21, L 2.86, Q 2.24, T 3.69, R 3.33
I9: G 3.47, N 4.01, C 4.01, H 3.31, F 3.83, D 4.04, M 3.3, V 3.52, W 2.82, K 3.84, R 2.91, S 2.51, A 3.57, T 3.31, E 3.93, L 3.81, Q 3.9, Y 3.32
P6: Q 3.62, R 3.7, W 3.08, L 3.12, C 3.22, V 2.89, D 4.05, F 2.92, K 4.03, E 4.13, T 3.56, M 3.16, G 3.44, Y 3.5, H 3.39, N 3.79, S 3.71, A 3.45, I 3.11
S7: I 3.41, F 3.34, N 3.55, Y 2.73, C 3.52, D 3.36, T 3.46, L 3.73, P 3.19, H 3.21, R 2.98, E 3.53, K 3.21, M 3.07, A 3.28, Q 3.87, G 3.5, V 3.21, W 3.78
D5: L 3.06, T 2.92, H 3.48, F 3.08, N 3.96, C 4.16, Y 3.75, K 3.8, V 2.98, Q 3.32, R 3.34, S 3.35, P 3.25, E 2.9, I 2.74, A 3.46, G 3.35, W 2.71, M 2.71
Q13: W 3.6, H 4.35, E 4.16, S 3.44, K 4.12, A 4.01, N 3, R 3.08, D 3.83, C 3.56, V 3.8, T 3.66, Y 3.46, I 3.24, M 3.51, L 3.09, P 3.76, G 3.56
C4: W 3.56, I 2.73, R 4.12, H 3.5, T 3.62, F 3.5, S 3.66, M 2.35, A 3.75, V 4.06, L 3.24, D 3.88, Q 3.78, G 2.77, Y 3.51, P 4.03, K 3.58, N 3.74, E 3.65

Variants of: B2
Experiment: as above
Conditions: c terminus: a fixed tail appended

Protein stability index: each site, then its substitutions
S24: V 2.15, F 2.36, P 2.57, G 2.65, Y 2.66, H 2.25, Q 2.51, L 2, T 3.46, M 2.5, N 2.83, R 3.68, I 2.5, W 2.57, K 3.64
